Data set [1] deals with the molecule itself. Description: AUC.
Data set [2] deals with the molecule itself. Description: AUC. This is another data set of the same source.

B1: Acinetobacter baumannii TIR domain protein (AbTir-TIR^wt, aa134-269) (domain or fragment, UniProt A0A009IHW8 134-269, looked up)
chain: EYDLFISHASEDKEDFVRPLAETLQQLGVNVWYDEFTLKVGDSLRQKIDSGLRNSKYGTVVLSTDFIKKDWTNYELDGLVAREMNGHKMILPIWHKITKNDVLDYSPNLADKVALNTSVNSIEEIAHQLADVILNR
In the case of B1, binding in “AUC [1]” was characterised by a dissociation constant (Kd) of 1400 nM. For the same protein, the “stoichiometry N” value in “AUC [2]” stood at 2.

The term Kd denotes the concentration at which binding is half-saturated. A low value points to a tighter complex. As a reminder, the stoichiometry N is a count of units in the complex or per binding partner.
